# Experimental data published in US20100204100A1, “BIOLOGICAL AGENTS ACTIVE IN CENTRAL NERVOUS SYSTEM” (THE JOHNS HOPKINS UNIVERISTY, priority 2007, published 2010).
# “Also recorded” adds a separate entry of the source.
# Experiments:
# [1] = system: threshold for halothane anesthesia; test: Determination of halothane RREC50 (righting reflex); format: in vivo, mouse; details: mice; for effect on halothane RREC50: intraperitoneal injection, dose series; for halothane RREC50: mean±S.E.M., vehicle 0.48±0.02
# Procedure: The purified fusion peptides at the indicated amounts were injected intraperitoneally into mice in 300 μl of phosphate-buffered saline and 10% glycerol. The mice were given Tat-PSD-95 PDZ2 or control peptide (mutated Tat-PSD-95 PDZ2 or PSD-95 PDZ2 without Tat) 4 h before MAC measurement and righting reflex testing. All the animals were assigned randomly to experimental groups consisting of 6-8 animals each. Western blot analysis was then used to verify the CNS delivery of these fusion peptides after intraperitoneal injection. Following the measurement of MAC, the halothane concentration was halved for 10 min and the animal turned on its back to test the righting reflex defined as a return onto all four paws within 1 min^20-22. […] RREC50 was calculated for each mouse as the mean value of the anesthetic concentrations that just permitted and just prevented the righting reflex.
# [2] = Baseline paw withdrawal threshold after peptide injection; format: in vivo, mouse; details: mice without CFA, vs vehicle
# Procedure: Behavioral Analysis. Mechanical sensitivity of the mice was measured with von Frey filaments (Stoelting, Wood Dale, Ill.) as described previously (Yang and Gereau, 2003). Mice were placed in Plexiglas testing boxes with a 1×1 cm^2 wire-mesh grid floor and habituated for 3 h before experiments. Each von Frey filament was applied to the mouse hind paw in ascending order until it bent at approximately 30° for about 3 s. The smallest filament that evoked a paw withdrawal response was taken as the mechanical threshold (paw withdrawal threshold). Similar sites were selected for measuring mechanical thresholds in all tested animals, and the thresholds were measured at approximately the same site throughout the experiment for each individual animal. Two to three measurements were made before CFA or fusion peptides injection, and the average was calculated as the baseline. Established inflammatory pain behaviors were induced by intraplantar injection of CFA solution (20 μl, 1 mg/ml). […] The effect of Tat fusion peptide on CFA-induced established inflammatory pain behaviors was expressed as % of baseline.
# [3] = Tests for locomotor function (placing, grasping, righting reflexes); format: in vivo, mouse; details: unanesthetized mice, 4 h after intraperitoneal injection, vs vehicle
# Source text: Tests for Locomotor Function. Four hours after intraperitoneal injection of Tat fusion peptides, their effects on locomotor function were examined with the following tests as described previously (Coderre and Van, 1,1994; Tao, et al., 2003a). 1) Placing reflex: The mouse was held with hind limbs slightly lower than forelimbs and the dorsal surface of the hind paws was brought into contact with the edge of a table. The experimenter recorded whether the mouse placed its hind paws on the table surface reflexively; 2) Grasping reflex: The mouse was placed on a wire grid and the experimenter recorded whether the hind paws grasped the wire on contact; and 3) Righting reflex: The mouse was placed on its back on a flat surface and the experimenter noted whether it immediately assumed the normal upright position.
# The effects of Tat fusion peptides on locomotor function were examined 4 h after intraperitoneal injection. The following tests were performed as described previously^23. 1) Placing reflex: The mouse was held with hind limbs slightly lower than forelimbs, and the dorsal surface of the hind paws was brought into contact with the edge of a table. The experimenter recorded whether the mouse placed its hind paws on the table surface reflexively; 2) Grasping reflex: The mouse was placed on a wire grid, and the experimenter recorded whether the hind paws grasped the wire on contact.
# [4] = target: T1, interactions between NMDA receptor NR2B and PSD-95 protein (Mus musculus, UniProt Q01097); test: In vitro binding assay (GST pull-down) with GST-PSD-95 PDZ1,2 and spinal membrane fraction; details: for effect on interactions between GST-PSD-95 PDZ1,2 and NR2B (amount of NR2B pulled down): preincubation with different doses of peptide, 30 min; for effect on interactions between NMDAR NR2 subunits and PSD-95: summary of GST pull-down and co-immunoprecipitation (FIG. 2)
# T1 construct: from tissue; host or cells: NR2B: solubilized membrane fraction of mouse spinal lumbar enlargement
# T1 sequence (Q01097 27-1482, other chains not shown): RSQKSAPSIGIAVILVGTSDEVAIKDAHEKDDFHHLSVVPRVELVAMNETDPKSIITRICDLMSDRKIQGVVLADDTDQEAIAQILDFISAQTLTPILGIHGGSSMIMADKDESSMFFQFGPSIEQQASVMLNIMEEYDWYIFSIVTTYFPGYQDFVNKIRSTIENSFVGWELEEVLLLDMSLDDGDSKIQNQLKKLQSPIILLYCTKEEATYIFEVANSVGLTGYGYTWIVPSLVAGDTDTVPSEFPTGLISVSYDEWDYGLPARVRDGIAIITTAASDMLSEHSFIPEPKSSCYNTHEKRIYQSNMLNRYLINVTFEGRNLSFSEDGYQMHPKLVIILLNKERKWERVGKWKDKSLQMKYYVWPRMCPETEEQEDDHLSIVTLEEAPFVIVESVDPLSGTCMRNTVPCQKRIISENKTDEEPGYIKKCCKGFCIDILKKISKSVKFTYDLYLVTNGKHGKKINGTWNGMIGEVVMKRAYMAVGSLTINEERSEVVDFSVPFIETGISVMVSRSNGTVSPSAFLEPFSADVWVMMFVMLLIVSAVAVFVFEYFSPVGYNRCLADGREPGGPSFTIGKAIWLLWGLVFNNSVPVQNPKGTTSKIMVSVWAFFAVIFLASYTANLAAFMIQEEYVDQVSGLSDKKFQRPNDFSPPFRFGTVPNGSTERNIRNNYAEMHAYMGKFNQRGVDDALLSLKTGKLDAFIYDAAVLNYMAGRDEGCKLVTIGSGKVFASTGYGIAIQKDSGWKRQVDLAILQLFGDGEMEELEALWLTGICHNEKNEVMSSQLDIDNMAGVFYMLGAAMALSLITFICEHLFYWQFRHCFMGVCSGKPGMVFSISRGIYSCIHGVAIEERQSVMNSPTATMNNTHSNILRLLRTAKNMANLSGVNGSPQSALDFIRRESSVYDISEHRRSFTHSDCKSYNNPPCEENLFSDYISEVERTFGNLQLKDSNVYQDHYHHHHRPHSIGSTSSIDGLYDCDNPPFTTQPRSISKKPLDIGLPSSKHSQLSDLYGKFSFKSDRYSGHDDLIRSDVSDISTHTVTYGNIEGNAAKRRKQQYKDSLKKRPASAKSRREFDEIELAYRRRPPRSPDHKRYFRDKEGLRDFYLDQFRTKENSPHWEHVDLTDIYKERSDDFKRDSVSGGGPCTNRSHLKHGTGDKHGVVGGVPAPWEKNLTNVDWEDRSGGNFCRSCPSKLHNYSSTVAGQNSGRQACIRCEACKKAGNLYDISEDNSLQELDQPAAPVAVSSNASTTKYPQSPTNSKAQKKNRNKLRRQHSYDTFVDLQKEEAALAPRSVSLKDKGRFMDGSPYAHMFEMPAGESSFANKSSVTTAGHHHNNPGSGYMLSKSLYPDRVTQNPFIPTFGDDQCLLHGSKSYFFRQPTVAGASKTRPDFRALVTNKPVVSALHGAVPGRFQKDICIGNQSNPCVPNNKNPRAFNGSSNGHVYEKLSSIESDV
# Procedure: In Vitro and In Vivo Binding Assays. […] Membrane-bound proteins from the spinal lumbar enlargement segments were extracted as described previously (Tao, et al., 2003a). For in vitro binding experiments (GST pull-down), the solubilized membrane fraction and GST fusion peptide were first preincubated with different concentrations of Tat-PSD-95 PDZ2 at room temperature for 30 min. Then the membrane fraction was mixed with the GST fusion peptide at room temperature for 1 h. The resin was washed five times with washing buffer (PBS plus 500 mM NaCl and 0.1% Triton X-100) and then boiled in 1×SDS-PAGE sample buffer to elute the bound proteins. After being separated by electrophoresis, the proteins were detected by immunoblotting with anti-GST antibody (Santa Cruz Biotechnology, Santa Cruz, Calif.) and anti-NR2B antibody (Upstate Biotechnology, Lake Placid, N.Y.). For in vivo binding experiments (co-immunoprecipitation), 5 μg of the affinity-purified rabbit NR2A/2B antibody (Chemicon, Temecula, Calif.) was incubated with 100 μl of protein A-Sepharose slurry for 1 h, and the complex was spun down at 2000 rpm for 4 min. The solubilized membrane fraction (500 μg) from the different groups of treated mice as mentioned-above then was added to the Sepharose beads, and the mixture was incubated for 2-3 h at 4° C. The mixture was washed once with 1% Triton X-100 in immunoprecipitation buffer [containing (in mM): 137 sodium chloride, 2.7 potassium chloride, 4.3 disodium hydrogen phosphate, 1.4 potassium dihydrogen phosphate, 5 ethylene glycol tetraacetic acid, 1 sodium vanadate, 10 sodium pyrophosphate, 50 sodium fluoride, 0.1 phenylmethylsulfonyl fluoride, and 20 U/ml Trasylol], twice with 1% Triton X-100 in immunoprecipitation buffer plus 300 mM sodium chloride, and three times with immunoprecipitation buffer. The proteins were separated by SDS-PAGE and detected by NR2A/2B or PSD-95 antibody (Upstate Biotechnology, Lake Placid, N.Y.). As a positive control (input), 50 μg of the solubilized membrane fraction was loaded onto the gel.
Molecule,effect on halothane RREC50 compared to vehicle-treated group ([1]; 8 mg/kg intraperitoneal),effect on halothane RREC50 [1],effect on baseline paw withdrawal threshold [2],"effect on locomotor function (placing, grasping, righting reflexes) [3]",halothane RREC50 ([1]; 2 mg/kg intraperitoneal),halothane RREC50 ([1]; 4 mg/kg intraperitoneal),halothane RREC50 ([1]; 8 mg/kg intraperitoneal),effect on halothane RREC50 compared to vehicle-treated group ([1]; two higher doses (4 and 8 mg/kg) intraperitoneal),effect on NR2B being pulled down at high dose ([4]; 16 μg peptide),"effect on interactions between GST-PSD-95 PDZ1,2 and NR2B (amount of NR2B pulled down) [4]",effect on interactions between NMDAR NR2 subunits and PSD-95 [4]
PSD-95 PDZ2: Control peptide containing the same sequences as Tat-PSD-95 PDZ2 but without Tat PTD (protein) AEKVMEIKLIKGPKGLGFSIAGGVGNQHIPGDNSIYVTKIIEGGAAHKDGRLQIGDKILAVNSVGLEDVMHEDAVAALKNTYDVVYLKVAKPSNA,no effect,no effect,–,–,–,–,–,–,–,–,–
Tat-PSD-95 PDZ2: His-tagged fusion peptide: HIV Tat minimal transduction domain (residues 47-57) fused to the second PDZ domain of PSD-95 (protein) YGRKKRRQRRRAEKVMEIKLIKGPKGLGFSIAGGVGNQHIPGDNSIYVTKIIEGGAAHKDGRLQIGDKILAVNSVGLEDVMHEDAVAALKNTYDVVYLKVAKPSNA,–,dose-dependently reduced,no significant effect,no effect; also recorded: did not show any effect,0.45±0.03,0.37±0.03,0.18±0.02,significantly reduced,completely prevented,dose-dependently inhibited; also recorded: dose-dependently reduced,markedly disrupted
"mutated Tat-PSD-95 PDZ2: Control fusion peptide: Tat-PSD-95 PDZ2 with three sites critical for NMDAR/PSD-95 interaction mutated (K165T, L170R and H182L) (protein) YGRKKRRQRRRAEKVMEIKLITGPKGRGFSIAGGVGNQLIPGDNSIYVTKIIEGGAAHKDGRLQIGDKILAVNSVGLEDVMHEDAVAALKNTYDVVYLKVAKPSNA",no effect,no effect,–,–,–,–,–,–,–,no effect,no effect
